Laboratory results taken from patent publication US20230322884A1, “IMMUNOSUPPRESSANT IN COMBINATION WITH HIGH AFFINITY IL-2 RECEPTOR AGONISTS AND RELATED DOSING” (Selecta Biosciences, Inc., priority 2022, published 2023).

Tested on: Ovalbumin-specific OTII T cells
Assay: Adoptive transfer of ovalbumin-specific OTII T cells, Foxp3 expression and total Treg (Example 5)
Assay type: in vivo, mice
Conditions: OTII T cells adoptively transferred prior to treatment
Experimental: However, expansion of antigen-specific Treg can be more desirable than expansion of total Treg. The ability of ImmTOR plus antigen combined with IL-2 mutein to induce and/or expand antigen-specific Treg was evaluated. Ovalbumin-specific OTII T cells were adoptively transferred into mice prior to treatment with ovalbumin and ImmTOR and/or IL-2 mutein.

B1: ovalbumin (protein, UniProt P01012 2-386, looked up)
Ovalbumin: GSIGAASMEFCFDVFKELKVHHANENIFYCPIAIMSALAMVYLGAKDSTRTQINKVVRFDKLPGFGDSIEAQCGTSVNVHSSLRDILNQITKPNDVYSFSLASRLYAEERYPILPEYLQCVKELYRGGLEPINFQTAADQARELINSWVESQTNGIIRNVLQPSSVDSQTAMVLVNAIVFKGLWEKAFKDEDTQAMPFRVTEQESKPVQMMYQIGLFRVASMASEKMKILELPFASGTMSMLVLLPDEVSGLEQLESIINFEKLTEWTSSNVMEERKIKVYLPRMKMEEKYNLTSVLMAMGITDVFSSSANLSGISSAESLKISQAVHAAHAEINEAGREVVGSAEAGVDAASVSEEFRADHPFLFCIKHIATNAVLFFGRCVSP
notes: model antigen administered to mice
With B1 the “percentage of Foxp3+ OTII cells” value was ~6%.
